Experimental data: a protein production outcome set (Wang et al. 2014)

Test: label from the status in PepcDB records
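Also: failed if final PepcDB status was selected cloned or expressed and not failed if soluble or beyond.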

MVGEEDSERAQSSKMEIERESNLGSASVLMQSKVISVSNFFSIHRFHYPREKIVSFLFPSVFSRIMASYGEEREIQKNYWKEHSVGLSVEAMMLDSKASDLDKEERPEILAFLPPIEGTTVLEFGAGIGRFTTELAQKAGQVIAVDFIESVIKKNENINGHYKNVKFLCADVTSPNMNFPNESMDLIFSNWLLMYLSDQEVEDLAKKMLQWTKVGGYIFFRESCFHQSGDNKRKYNPTHYREPKFYTKLFKECHMNDEDGNSYELSLVSCKCIGAYVRNKKNQNQICWLWQKVSSDNDRGFQRFLDNVQYKSSGILRYERVFGEGFVSTGGLETTKEFVDMLDLKPGQKVLDVGCGIGGGDFYMAENFDVDVVGIDLSVNMISFALEHAIGLKCSVEFEVADCTKKEYPDNTFDVIYSRDTILHIQDKPALFRRFYKWLKPGGKVLITDYCRSPKTPSPDFAIYIKKRGYDLHDVQAYGQMLRDAGFEEVIAEDRTDQFMKVLKRELDAVEKEKEEFISDFSKEDYEDIIGGWKSKLLRSSSGEQKWGLFIAKRN
protein production: failed

MSSERVLSNARVVSAERVFVGSVLLRDGLIAAVDEGRSHLAGAEDLGGDYLLPGLVELHTDNLEKHMTPRPGVDWPSASAVLAHDAQIVSAGITTVFDALSIGDVNPKGKRMQQLPKMLEAIGEAAASGDARADHRLHLRCEVSHPQTLEVFRELVEHPLVQLVSVMDHAPGQRQFARLEKYREYYQGKYHLSDAEMDAFIVEQVANSERYSDAARAAIVDVCQGRGLSVASHDDATLAHVRESAGYGMAIAEFPTTVEAARASHEHGLQVLMGAPNVVRGGSHSGNVAAAQLAGIGVLDILSSDYYPASLLHAALLLAGEHSEYDAIRYDLPRAVAMVSRTPALAAGLTDRGEIRVGLRADLLQARALGNNQPVVRQVWRGGQRVF
protein production: failed

MMPLSTPDFASIRDTLLRDLQNLRADADIAPDSDYFVRASSVASAVEGLYQHQSWIARQIFPDTADSEYLEQHARLRGIVRKPAAAASGTLRISGNAGAVVSGSLQLRIGEQLYATPAANPDGSPYAARLDANGQAELPIFASQAGAAGNQPESLPVELMQAPSGVSAKALLLSMRNGVDVEDDAALLDRLLELIRRPPAGGNRHDYRRWAMEVKGVSAAYVYPLRRGLGTVDVVITANGDLPSQEILNNVQAHIEDLRPVTAKSCLVLAPTPRPVDIDVALNLGGANLDAFTPLLQQTLQAYFAGLAPGERLVKSRIEALISDLPGVQDRQLNSPAGNVDPVSDPTKVEWLRLGKLTVGLLKLEHHHHHH
protein production: not failed

MTESFTRRERLRLRRDFLLIFKEGKSLQNEYFVVLFRKNGLDYSRLGIVVKRKFGKATRRNKLKRWVREIFRRNKGVIPKGFDIVVIPRKKLSEEFERVDFWTVREKLLNLLKRIEG
protein production: not failed

NVAYPLGEGLLSFAESLESQKIHFTTEVITSRIEPANRYVAEKLRITPGQDILYLERLRSIGDEKAMLIENRINIELCPGIVEIDFNQHNLFPTIESLSKRKIRYSESRYAARLIGNERGHFLDISEDAPVLHLEQLVFFSRELPVEFGNVWLKGNKYYLGTVLQRRELS
protein production: not failed

MKKLKRAYKMEINPTDEQKSKIHQTIGVSRFIYNFYIARNKEIYEKEGKFVSGMDFSKWLNNEYIPNNQEMKWIKEVSSKATKQAIMNGDKSFRDFFKKAKGFPRFKKKKNQDVKAYFPKNNKTDWTIERHRVKIPTLGWVRLKEFGYIPTNSIVKSGTVSQKADRYYVSILVEETDIKISNSNIGIKIFNHNNEGIGIDLGIKDFAICSNGNKFKNINKTSTIKKVEKNLKREQRKLSRKYESLKIRNKKEKGGNVTRQNIQKQIVKVQKLHQRLTNIRTDYINKIVSSIIKQKPSYITIEDLNVKGMMKNKHLSKAIASQKFFEFKTKLMSKCKQNDVELRIVDRFYPSSKTCSQCGEIKKDLKLSDRVYKCSCGLVIDRDLNASINLRNAKEYKIALEHHHHHH
protein production: not failed

MRYCRRIGDGHITANSRRMFMVEPAGRKPDPQRRTPHPSVAPADAPWPAHSPVDPAVRRFRGAARYAIWRRGAEWTAVADGPQWSAALAPRIWALRQRQWPVLAVSAPMLVVAGAVALAGVQGWSPVAWTALLVAEVLLRVWVARQAGPWRTAALQRTGWQLVTRLRAISVADAVTTAQIRAGRPQR
protein production: failed

MTQQTFLVEIGTEELPPKALRSLAESFAANFTAELNNANLPYGEVIWYAAPRRLALKVTNLSATQADREVEKRGPAIAQAFDAEGKPSKAAEGWARGCGITVDQAERLVTDKGEWLLYRAHVKGQSAQLLLAGMVNTALSKLPIPKLMRWGDKDTQFVRPVHTVTMLLGSEVIPGTVLGIDSDRIIRGHRFMGEPEFTLDNADQYPQVLQERGKVIADYELRKAIIKRDAELAAQKIGGVADLSESLLEEVASLVEWPVVLTAKFEEKFLAVPAEALVYTMKGDQKYFPVYDTAGNLLPNFIFVANIESKDPQQIISGNEKVVRPRLADAEFFFKTDRKKRLEDNLPRLETVLFQQQLGTLRDKTDRIQALAGWVAAQIGADVNHATRAGLLSKCDLMTNMVFEFTDTQGVMGMHYARHDGEAEDVAVALNEQYQPRFAGDDLPSNPVACALAIADKMDTLAGIFGIGQHPKGDKDPFALRRAALGVLRIIVEKNLPLDLQTLTEEAVRLYGSKLTNTKVVDEVIEFMLGRFRAWYQDEGHSVDTIQAVLARRPTRPADFDARVKAVTYFRTLDAAAALAAANKRVSNILAKSTDKLNDHVRASVLKEPAELKLATHLVVLRDKLEPVFAAGQYQEALVELAALRETVDEFFESVMVMDEDDAVRVNRLTLLSKLRELFLQVADISLLQ
protein production: not failed

MRHLKSGRKLNRHSSHRLALYRNQAKSLLTHGRITTTVPKAKELRGFVDHLIHLAKRGDLHARRLVLRDLQDVKLVRKLFDEIAPRYRDRQGGYTRVLKLAERRRGDGAPLALVELVE
protein production: not failed

MKRLLERSHALLTAPVGATPRVLALVAALLVVPTYVAPLWNLTMFAPQYGDGLRLDIYSYKLEGGNHGQDLKEINLLNHYIGMHDLAEEDFREFKWMPFVMGGLALVFLRAAVMGRVLDLLDSLVVFTWFGLFSLWSFGYKLYSYGHDLAPGAPVKVPPFMPPMIGSAQLANFEVYSYPGLGSYALFAVGLALAVALALGVRATLRRSAAAPLPRGGP
protein production: failed

MKTINVFHYDAFTNKPNMGNPAGIVLDADGLTEEEMQRIAEKVGFNETSFVLSSEVADIRMRYFTPGYEMDLCGHGTVGTIYALRERGLLEEKASLTIETKAGILPIQIGVNENGETFIKMRQTAPQFKDFAGSKEELAHSIGLEVNDLDVSLPIVYGSTGNWTVIVPVKNLDVCERMKPNNEVFPSVLKEIPNASIHPICLETYDEKVHMHGRHFSSAYAGTIEDPVTGTASGVMGAYYATYVEKDFDHEMELIVEQGQEIHKDGRVTVYVTKDVESEKLQIDIAGTAVYVKEFEVLI
protein production: failed

MKISPSLMCMDLLKFKEQIEFIDSHADYFHIDIMDGHFVPNLTLSPFFVSQVKKLATKPLDCHLMVTRPQDYIAQLARAGADFITLHPETINGQAFRLIDEIRRHDMKVGLILNPETPVEAMKYYIHKADKITVMTVDPGFAGQPFIPEMLDKLAELKAWREREGLEYEIEVDGSCNQATYEKLMAAGADVFIVGTSGLFNHAENIDEAWRIMTAQILAAKSEVQPHAKTA
protein production: failed

MQSPEKIDPTWEDSVIDSFISFVRSYDGDFTCIYKLADTVSDEYSLQKIIDFLSSTPQGKQAFQKRPQLGVVDLPKLHQLPTDTLGYVYADQMLQNNLQPLQSHEIDNDYQFFKTHITETHDLWHIVTGADTSILGEIQLEAFYVSQLYASRFWLALLAKNLLKAVIYDIELSTPYMDAISTGWVMAKQAKPLFGLEWNLLWEKPLADVRTSLNIILPVNLEHHHHHH
protein production: not failed

MATQYGALSYSSRTQSPARVMTRVMVEARRVLLGALATAAVVAFMSAVGWVALLALTVTIPFATIVVALAMAIRHFRQDRRALA
protein production: failed

MRIGIMGLGRIGAFHAETLSGLPAVTSLVVTDPFTDAAKSAAERFGAEVADSPEAVLAAGVDGVVVAAATDAHPGLVLAAVEAGVPVFCEKPVARTMREGVAVLEAVRDAGVEIQIGYNRRFDAGFVAARAAVASGELGALHTVRSTTLDPAPPPPAYVAASGGIFRDCSVHDFDIIRWVTGREVVEVYATGGNRGADYIAAAGDADTTAAVLTLDDGTLAVVSNSRHNARGHDVRMELHGFRDSIAVGLEDRLPLRSVEPGTSFPAGTPHDFFMDRFAAAYRAELTAFTEVVAGRRPSPCTVADALEAGWIAEACTLSLHSHRPVTVEEVRRQS
protein production: failed

MIHITSQACFLWHTTINKICNRPMFNPLTIRFWGVRGSIPCPGSHTVRYGGNTPCVEIQANGQRIILDGGTGLRVLGEHLMGQQPVTAHLFFTHTHWDHIQGFPFFQPAFVPGNQFHIYAVPGKNGQGIERRLNDQMLHPNFPVPLQIMGGDLRFYDLEVGERVHLGDGVVVSNEALNHPGGGVGYRVSWQGIHVAYITDTEHLPDRLHPGAFALADHADVMIYDATYTDEEYYHPQQSKVGWGHSTWQEAVKLAQAAQVKQLILFHHDPSHDDDCLDRIGELARAQFPQTLLAREGLIISVYPNVIHFPATPQASLEHHHHHH
protein production: failed

MKKRAVLILSMMLAAQAAFYTSSNTASAAIGEAVIATDEINVRSGPGLSHEIVSVVSRNESYPILEERGDWVQIQLNGGQKGWVVSWLIKKKSQVSSGSDSASGKVTSSEANLRIRKGPGTSYEVQGVFPEGEQADLLKTDGKWIKISYQNITGWVYSDYVNQGSGAKQSQSSSSHASSSKSGTVGVSTLNVRSTASHQGRIIATLQRNASVTILNEQHGWYEIEFNGQKGWAASHYILEGNKQNSGTSETSSSSEAKRQATIVYEGTNVRSGPSTSSAIVKRTGKGESYPIVSTKGDWYEIKLSNGDSAYVASWVVQTVDQAGSAGDSKSAAPPLAKRSSSGGTIKNKTVVIDAGHGGHDSGTIGTRGTLEKRLTIKTATLLAAKLRADGVNVYMTRNDDSFVSLQSRVATSHYRNADAFISIHYDSFPNASVRGNTAYYYSPSKDRKLAADVQSEIERHSPLPSRGVLFGDYFVLRENKQPAALFELGYLSHPQEEAVVSTNAYRERVTDGIRSGLENYFD
protein production: failed

MAVSSGTFSTFLCIKTTSFRNPSTPLSSLRFASHPAAKLRLVRAVTSATESSEPTATNKRVPRGIMKPRPVSPEMQDIVELPEIARTQALKRIWAYIKEHDLQDPQNKREILCDEKLKKIFEGRDRVGFLEIAKLIGPHFL
protein production: failed

MMGDYGITEEDLVIEEAQGYPRAYTKICRDFDAFPYKNGPPFTFMPYILQQNESLRCREVDQMFPVIDPKARPTTKPKIFLSLLWKQLNHLGNAGFDPAVIRIDPYGNVVYFHADSASPLAWSFDHWFPCSRGGLTVPSNLRIVQWQARKNKKDKLEFLVPWWDLQVGISVNQFLSIFAASSSDFRYR
protein production: failed

MAINPNPRSVVAVRATVPEDAFTAGALGTLREGSGVVIRNDGLVLTIGYLITEAEEVWLTAYDGRVIPAHALAYDQESGFGLVQALAPTGLPAVALGDAGKARIGDAVVLADGIGRAVEAKIVTKQEFAGYWEYLLDEAIFIAPAHPSWGGAPLFGADGALLGIGSLRLQMSRAGEVADINMVVPIDLLPPILDDLLTRGQVAKPPRPWLGALSAESDGKVVVMSVTEGGPAAKAGLRQGDVISEVRDGAVDGLADFYRKLWDSGSAGAEIPMRVVRDGRETWLRVKSADRGSFLKKPQLQ
protein production: failed

MSLTRPLRADAARNRARVLEVAYDTFAAEGLGVPMDEIARRAGVGAGTVYRHFPTKQALVVAVAEDRVRRIVDHARTLLAAEGPGEALFVFMRDMVRSAAADYGLVDALVGYGLDLEVAAPGAEAAFLATLGELLAAAQRAGTVRADVDVAVIKALLVVCKVPQVYDGEVSERVVRVIEDGLRVRSSVEGHHHHHH
protein production: not failed

MKKVTIVGGNGTVGRVLAGGLAGEGYEVTVLDLKEPDDKQAVRFIRVDATDYNEVVKSIPAQTNALINLLAVKPSGDLLDRQEFAKMTDIFFKATYTILRAAAELGVPKVVFASSNHVTDVYEKGGDSLLGRQINTNDYPQSKSLYGLLKLASENLGYLFSHQLDAKVSVINLRIGTAAENELETLHAKPRSKKTLLSHPDLIGIFKAAIKSGKTYGTYYAVSDNKGRPWSIDSAIRELGYRPQVSASDILDED
protein production: failed
